18 sequences from the NTF2 design screens of Basanta et al. (2020) can be followed below.

The nature of the series: protease stability score; higher = more stable; yeast display proteolysis, trypsin and chymotrypsin.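 Also: log10 excess protease needed over predicted unfolded state with 0 meaning unfolded.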
In the case of “DTRANEIWQDIVQALQTGDHERAIRLADPNVHFKVGDREVHGMTQFAHKQAQRHREARIELRVHSVRDRGDHVTVHYEMVVNVDGNPVKNTVTIYIVMRNGKLRSVEVSVDPRDVKRMRS”, the protease stability score amounted to 0.108. With “DTRARDIARRFWEAIRKNDPDKIKNQADENADFKVGDKTIHGMDHIIHHWEKVNKHARFQWERMEIKDSPNHVDVKYQFIVDVDGEPKTINATAQFQFHNGRIKNYEIQVDPEQFKEITK” the figure was 0.523; with “DTRAREVLEKFLKALNKGDPDKMKRQADPNAKFHIGDKQVHGMDQMKEQIRTNQRHMKIDVQVQEVQVRNGRVVARMEVRQTHNGQPTSDILVVEAEVKNGRIKSAHWEKSS”, -0.414. On to “DTRDDERFKEFLKQIETNDPDKLVRMFDPNARIKVGDNELRGREQIHTFWKHVLDEQRVEYTDVKADFNGDKIEVDIRMVNQTNGEPEESRNKVEVKWHNGRLIDVIFRSDG”, for which the protease stability score came to 0.113.

Sequence “DTRKVQEMAKQFVQAMKDNDRTTLEKLADEDARIRVGEKELHGRDQVATMVAHMAKNIDHIRVKKLSVDENHVNLVFEVEHNGRRVRIILRITARNGRIKHIQVDPDRVRELEG” showed a protease stability score of 1.01. For “DTRSVMKDILKKIQENLKTGDPQHAADLFDPNVSVRVGDKELRGREQVRKKMKEERDRVDHVDMRIHDMKVSNGRVVVHYTWTVTVNGRKETNRAQLHADNEGDKALVTEVNVK”, the protease stability score is -0.106. With “DTRTDLRVAEKAAKAFHTNDPEKFKKQADPNAKAQYGDKTVHGMEDIVTRLKKFKDRVDHLRLNDIKSTGEKVDLNIQINVNGKNVEAKIDFHVRNGRLKTMKVDPNAVDAYRS” the figure was -0.19; with “DTRVARLVQEIMENVKKGSKEHLKQMVDPNVKIRVGDKTFHGREDFVTHLMDERKEARVDYHLKDVKDEGDKAFADVVQHVDKNGQPRNRHFIIDARAENGRLKEMRIENTK”, -0.3; with “DTSDNKRAKELLDVLRTGDKEDFKNLVDENVRVVVGDKEVHGRDEIAEDISRKKKEMRYTFKVEDLQDHNGHVKVDMRQSSEHNGSPHHSDAKVTVNFENGKVHDVVLRDDG”, -0.04.

In the case of “DTTTEIQRLVHDFVRKIKTGDPKEFERLVDEDARVRVGDKTVSGREEAVSHMVETAQRADTMDVNITSVSIHNGHAKVEFHLKYDHNGKDVEQTIIFVMVKRNGHFRLKEMVQK”, the protease stability score turned out to be 1.26. “EDDAITRWEELERQQETGNEEKAQEMVDPNVKMRYGDDNFHGREEYRKLVHKIRKNWREDVKDVRFEDHGEEIKVEYRVHQDINGKPVNADVTAEAQMSNGRLKKFVLRFSETQEKEIES” had a protease stability score of 0.351. As for “EDDRQRKFAKHANKVMETGDPREMEKLADENVRVVVGEKDVHGRERAQEWAKELSDRVDQIRIKDVDVDGNKVVIDLIVDHNGRQSTVTVDIEFHNGRAKSVTMHEK”, the figure is -0.244; as for “EDDVKRKQETWLKAVEDNNPEEAEEQADKHVQVVIGDKRIRGMEEMAHFIEHERRQADIRIQDYRISARGDKVRANISMHFNVNGTPEQASIKIQVTLSNGKIRKMVFRFDDQEFRRIQS”, 1.1; as for “EDEEAEEAIRIWQRNDPDQLNRMVDKDVSIHYGDKSYHGRHEVKKIWENYVKQVDRISFRHITRTGEHVSFEVEAVVNGKHVEFTASMEMKNGRAKDITFKATNEEDDKELQKNLE”, 0.28.

Take “EDEEAEKLSEIQRTGDEERIARNADPNVRVNVGDKRVHGREHLVSIAKRLSKNVDSLEIKHVEIQGERMVVRFVMQVNGKHIHAEMEIQMSNGRITSRNQRYTSEDVEQNWRDAVD”: the protease stability score amounted to 0.255. With “EDEELRKMVKQWEKGDPDQLLRYADEDAEFKVGDQQFHGREQLKHYIKRLKHRVDHFQIRKVTREGDRVRIDAFQVVNGRKIVYVFVLEVKNGRLKRLTMDFRDEKDERHFRTMLK” the figure was 0.902; with “EDELLHILKEFIQAVNSGDSDKLRELMDPNVKAEYGDKEIHGREEIARQWRQIRHEIKFSWKHLHFEVKGDKLRVDFTVVMDVNGKPKHYRAVLYMKLKNGRITTLHVKMPEEEAKELNK”, 0.363; with “EDELRDQFKRFMNAWERGDPDKLRSLVDPNAEVVVGDKVYHGMTHAADEIVRHMKESRYTIKIESINVNGDNIEVTARVTADHNGKPQDASFHASARLENGHVTSMEVQIRE”, 0.916.
